Measurements taken from patent US20140371150A1 (UNIVERSITE DE NANTES, published 2014).
One block for each binder: values may come before it.

What was measured:
[1] = target: T1, RANK-Fc carrier-free (R&D Systems) (human, UniProt Q9Y6Q6 30-212); experiment: SPR (BIAcore 3000), RANK-Fc immobilized, single cycle kinetics, 1:1 Langmuir model
T1 construct: Bought from R&D Systems; Immobilized on the sensor chip for SPR and used in solution for NMR; also called hRANK; RANK-Fc CF; not shown: Fc part of the bought fusion protein
T1 sequence (looked up): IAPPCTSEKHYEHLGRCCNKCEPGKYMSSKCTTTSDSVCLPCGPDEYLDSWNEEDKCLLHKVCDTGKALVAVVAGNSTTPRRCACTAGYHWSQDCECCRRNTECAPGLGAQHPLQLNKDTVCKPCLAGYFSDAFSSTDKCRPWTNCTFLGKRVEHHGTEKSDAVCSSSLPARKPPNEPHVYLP
Procedure: Biosensor experiments were carried out on a BIAcore 3000 instrument (BIAcore) as published previously (Baud'Huin et al. 2009). Recombinant purified RANKL (2 μg/mL in 5 mM maleate, pH 5.75) or RANK-Fc carrier-free (5 μg/mL in sodium acetate buffer, pH 5.0) were covalently immobilized to the dextran matrix of a CMS sensor chip (BIAcore) at a flow rate of 5 μL/min. Immobilization levels ranging from 400 to 3000 Response Units (RU) for RANKL or 5000 RU for RANK were obtained. Binding assays were performed at 25° C. in 10 mM Hepes buffer, pH 7.4. The association phase was 180 seconds followed by a dissociation phase in the same buffer. Polypeptides binding studies to RANK or RANKL were determined using single cycle kinetics, starting with 100 μM of the polypeptide of interest followed by 2-fold serial dilutions (ranging from 100 to 0.78 μM). The sensorgrams were fitted to calculate the equilibrium-dissociation constants using the Langmuir 1:1 model with BiaEval 4.1 software (BIAcore). RANK-Fc CF, RANKL and OPG carrier-free were obtained from R&D Systems (Minneapolis, Minn., USA).
Binding of the polypeptides to RANK was studied using surface plasmon resonance (FIG. 1C). Several polypeptides bound to immobilized RANK in a dose-dependent manner, presented here is Pep1 (SEQ ID NO: 33).

[2] = target: T2, mouse RANK on cells (murine CD11b+ monocytes; RAW264.7 cells) (mouse, UniProt O35305 31-625); experiment: cell-based or functional assay
T2 sequence (looked up): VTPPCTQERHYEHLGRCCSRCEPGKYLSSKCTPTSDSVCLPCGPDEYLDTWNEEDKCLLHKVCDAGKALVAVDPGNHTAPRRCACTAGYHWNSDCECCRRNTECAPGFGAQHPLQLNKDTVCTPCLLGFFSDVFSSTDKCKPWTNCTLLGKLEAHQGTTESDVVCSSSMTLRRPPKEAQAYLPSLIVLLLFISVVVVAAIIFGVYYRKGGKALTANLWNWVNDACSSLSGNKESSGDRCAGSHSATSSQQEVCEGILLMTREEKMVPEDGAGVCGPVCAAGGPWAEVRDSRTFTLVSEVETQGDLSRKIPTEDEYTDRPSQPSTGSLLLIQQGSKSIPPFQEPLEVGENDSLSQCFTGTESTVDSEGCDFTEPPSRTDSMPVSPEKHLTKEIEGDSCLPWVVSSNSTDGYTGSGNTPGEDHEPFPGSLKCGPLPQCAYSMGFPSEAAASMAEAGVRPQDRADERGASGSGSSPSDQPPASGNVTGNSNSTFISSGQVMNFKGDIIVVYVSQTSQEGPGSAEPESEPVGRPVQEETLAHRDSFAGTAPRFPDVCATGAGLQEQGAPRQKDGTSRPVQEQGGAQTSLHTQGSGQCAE

[3] = target: T3, human RANK on cells (human CD14+ monocytes; HEK-RANK cells) (human, UniProt Q9Y6Q6 30-616); experiment: cell-based or functional assay
T3 sequence (looked up): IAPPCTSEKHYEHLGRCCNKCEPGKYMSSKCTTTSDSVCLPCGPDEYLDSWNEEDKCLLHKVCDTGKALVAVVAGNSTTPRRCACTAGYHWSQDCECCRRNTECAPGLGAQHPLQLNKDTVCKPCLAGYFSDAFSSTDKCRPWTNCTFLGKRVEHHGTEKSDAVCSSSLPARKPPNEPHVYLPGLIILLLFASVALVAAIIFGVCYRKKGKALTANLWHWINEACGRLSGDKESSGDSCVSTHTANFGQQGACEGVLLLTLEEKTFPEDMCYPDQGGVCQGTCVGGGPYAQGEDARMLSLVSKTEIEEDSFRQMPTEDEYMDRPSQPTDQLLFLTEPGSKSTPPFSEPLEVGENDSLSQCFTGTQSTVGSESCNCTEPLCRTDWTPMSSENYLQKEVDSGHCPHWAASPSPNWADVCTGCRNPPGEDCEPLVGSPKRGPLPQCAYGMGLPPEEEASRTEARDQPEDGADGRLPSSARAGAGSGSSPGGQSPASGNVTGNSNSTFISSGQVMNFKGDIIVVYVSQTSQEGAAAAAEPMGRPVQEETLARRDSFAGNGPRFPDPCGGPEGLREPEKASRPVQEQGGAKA

- Kd [1]: 20.6 µM
- koff [1]: 0.000278 s⁻¹
B1: Pep1 (peptide)
peptide: ELASYIIITQLG
notes: Synthetic designed peptide; the SPR text mentions no pegylation; also called polypeptide Pep1

- IC50 of RANKL-induced osteoclast formation (TRAP-positive multinucleated cells), murine CD11b+ cells [2]: 30 µM
- IC50 of RANKL-induced osteoclast formation (TRAP-positive multinucleated cells), human CD14+ cells [3]: 40 µM
- Kd [1]: 10.5 µM
- koff [1]: 0.0052 s⁻¹
- kon [1]: 495 M⁻¹ s⁻¹
B2: Pep8 (peptide)
peptide: NVLKLCSGE
notes: Pegylated forms (N-(PEG)5, N-(PEG)8) were tested only in gene expression assays and in vivo; also called polypeptide Pep8
